Results from paper PMC3938669, “Inhibition of Hepatitis C Virus Infection by DNA Aptamer against NS2 Protein”.

molecular target: NS2 (recombinant) (Hepatitis C virus JFH1 (genotype 2a), UniProt Q99IB8 814-1030); assay: ELONA; binding retained with excess yeast tRNA; ELONA: biotin-aptamer on streptavidin plates, protein 30 min at 37 C; washes PBS, 1 mM MgCl2, 0.1% BSA, 0.05% Tween-20; pH not stated; conditions: tags: N-terminal His (pET-28b), label: biotin
Sequence (Q99IB8 814-1030): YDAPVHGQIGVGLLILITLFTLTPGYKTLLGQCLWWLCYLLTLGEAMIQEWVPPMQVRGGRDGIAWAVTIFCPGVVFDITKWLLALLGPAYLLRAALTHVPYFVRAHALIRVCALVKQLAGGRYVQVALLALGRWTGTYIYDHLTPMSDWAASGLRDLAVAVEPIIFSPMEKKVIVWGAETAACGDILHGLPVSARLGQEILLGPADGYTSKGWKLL

Binding result, binds:
CAGGTACCACCTTCATGGGCGCGGAAGACGATGGTGTACTA (ssDNA) [aptamer NS2-2]
CTGGATCGAAAAGTATCCACGTTTGTCTGAAAATAGTGGCC (ssDNA) [aptamer NS2-1]
ACGGGGCAGGATTGTCCCCGCGCCTGGTTGAAGGTAGTCGC (ssDNA) [aptamer NS2-3]
